In patent US20070207463A1, “Method” (priority 2003, published 2007):

Assays:
Type in all cases: biochemical, Pantoea dispersa SB1043
[1] = system: CC(=O)Oc1ccc([N+](=O)[O-])cc1; test: Enzyme kinetics of AlbD-M1 with p-nitrophenyl compounds; conditions: other: AlbD-M1, PBS pH 7.4, room temperature, O.D405, Lineweaver-Burk, means of triplicate
Experimental: (§1) Purification of AlbD and variants. The coding sequence of albD was amplified by PCR using forward primer 5′-[…]-3′ and reverse primer 5′-[…]-3′. The PCR product was digested by BamHI and EcoRI and fused in-frame to GST (glutathione S-transferase) gene in expression vector pGEX-2T (Pharmacia). E. coli DH5α containing the GST-AlbD fusion construct was grown in LB medium at 30° C. overnight. The cells were harvested by centrifuging at 5000 rpm for 10 minutes. The cells were resuspended in PBS buffer (pH7.4) and lysed by using a French Pressure Cell Press (Aim-Aminco) at 1100 psi. The lysate was centrifuged at 18000 rpm for 60 min at 4° C. The supernatant was loaded in the pre-equilibrated Gluthione Sepharose 4B affinity column and washed with PBS buffer (pH 7.4) to remove non-specifically bound proteins. […] The enzyme purity was determined using SDS-PAGE and stored at −80° C. in PBS buffer containing 50% glycerol. The AlbD variants were purified using the same method.
(§2) Kinetics analysis of wild type AlbD and its variants. Enzyme kinetics of AlbD and variants were determined using p-nitrophenyl compounds, the commonly used esterase substrates. The reaction was conducted in 165 μl PBS buffer (pH 7.4) containing enzyme (0.3-0.6 μM), and 3 mM p-nitrophenayl compounds at room temperature for 5 minutes and O.D405 was determined. For kinetics assay, we used the Kinetics program in the Athous spectrometer (Australia) to obtain slopes with different enzyme concentrations, and then calculated Km/Vmax and Kcat/Km by Lineweaver-Burk equation.

[2] = system: CCCCC(=O)Oc1ccc([N+](=O)[O-])cc1; test: as above; conditions: other: AlbD-M1, PBS pH 7.4, room temperature, O.D405, Lineweaver-Burk, means of triplicate
Experimental: as §1, §2

[3] = system: CCCC(=O)Oc1ccc([N+](=O)[O-])cc1; test: as above; conditions: other: AlbD-M1, PBS pH 7.4, room temperature, O.D405, Lineweaver-Burk, means of triplicate
Experimental: as §1, §2

[4] = system: CCCCCC(=O)Oc1ccc([N+](=O)[O-])cc1; test: as above; conditions: other: AlbD-M1, PBS pH 7.4, room temperature, O.D405, Lineweaver-Burk, means of triplicate
Experimental: as §1, §2

[5] = system: CC(=O)Oc1ccc([N+](=O)[O-])cc1; test: Enzyme kinetics of AlbD-M2 with p-nitrophenyl compounds; conditions: other: AlbD-M2, PBS pH 7.4, room temperature, O.D405, Lineweaver-Burk, means of triplicate
Experimental: as §1, §2

[6] = system: CCCC(=O)Oc1ccc([N+](=O)[O-])cc1; test: as above; conditions: other: AlbD-M2, PBS pH 7.4, room temperature, O.D405, Lineweaver-Burk, means of triplicate
Experimental: as §1, §2

[7] = system: CCCCCC(=O)Oc1ccc([N+](=O)[O-])cc1; test: as above; conditions: other: AlbD-M2, PBS pH 7.4, room temperature, O.D405, Lineweaver-Burk, means of triplicate
Experimental: as §1, §2

[8] = target: Pantoea dispersa AlbD variant AlbD-M1, Ser40Gly (A118G), FIG. 3 (Pantoea dispersa, UniProt O07822, S40G); test: Enzyme kinetics of AlbD-M1 with p-nitrophenyl compounds; conditions: PBS pH 7.4, room temperature, O.D405, means of triplicate
Experimental: as §1, §2

[9] = target: Pantoea dispersa AlbD variant AlbD-M2, Glu25Arg (A74G)/Lys27Glu (A79G)/Ser40Gly (A118G) (Pantoea dispersa, UniProt O07822, K27E/Q25R/S40G); test: Enzyme kinetics of AlbD-M2 with p-nitrophenyl compounds; conditions: PBS pH 7.4, room temperature, O.D405, means of triplicate
Experimental: as §1, §2

[10] = target: Pantoea dispersa AlbD (albicidin detoxifying enzyme, carboxyl esterase), wild type (Pantoea dispersa, UniProt O07822); test: Enzyme kinetics of wild type AlbD with p-nitrophenyl compounds; conditions: PBS pH 7.4, room temperature, O.D405, means of triplicate
Experimental: as §1, §2

[11] = system: CC(=O)Oc1ccc([N+](=O)[O-])cc1; test: as above; conditions: other: wild type AlbD, PBS pH 7.4, room temperature, O.D405, Lineweaver-Burk, means of triplicate
Experimental: as §1, §2

[12] = system: CCCCC(=O)Oc1ccc([N+](=O)[O-])cc1; test: as above; conditions: other: wild type AlbD, PBS pH 7.4, room temperature, O.D405, Lineweaver-Burk, means of triplicate
Experimental: as §1, §2

[13] = system: CCCC(=O)Oc1ccc([N+](=O)[O-])cc1; test: as above; conditions: other: wild type AlbD, PBS pH 7.4, room temperature, O.D405, Lineweaver-Burk, means of triplicate
Experimental: as §1, §2

[14] = system: CCCCCC(=O)Oc1ccc([N+](=O)[O-])cc1; test: as above; conditions: other: wild type AlbD, PBS pH 7.4, room temperature, O.D405, Lineweaver-Burk, means of triplicate
Experimental: as §1, §2

Sequence of Pantoea dispersa AlbD variant AlbD-M1, Ser40Gly (A118G), FIG. 3 (O07822 entry or part of it S40G): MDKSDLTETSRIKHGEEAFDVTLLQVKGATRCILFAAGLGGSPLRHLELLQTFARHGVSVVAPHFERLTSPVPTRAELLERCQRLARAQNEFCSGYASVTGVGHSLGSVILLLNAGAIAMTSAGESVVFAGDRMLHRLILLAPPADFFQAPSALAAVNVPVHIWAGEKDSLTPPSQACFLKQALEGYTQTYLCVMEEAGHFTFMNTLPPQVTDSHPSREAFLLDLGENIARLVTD
Sequence of Pantoea dispersa AlbD variant AlbD-M2, Glu25Arg (A74G)/Lys27Glu (A79G)/Ser40Gly (A118G) (O07822 entry or part of it Q25R/K27E/S40G): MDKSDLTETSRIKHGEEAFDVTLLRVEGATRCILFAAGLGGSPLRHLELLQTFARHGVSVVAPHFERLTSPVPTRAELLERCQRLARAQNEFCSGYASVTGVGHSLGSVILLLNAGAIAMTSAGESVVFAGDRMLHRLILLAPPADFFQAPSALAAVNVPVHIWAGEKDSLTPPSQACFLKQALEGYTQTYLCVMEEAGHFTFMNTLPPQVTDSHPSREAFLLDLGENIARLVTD
Sequence of Pantoea dispersa AlbD (albicidin detoxifying enzyme, carboxyl esterase), wild type (O07822 entry or part of it): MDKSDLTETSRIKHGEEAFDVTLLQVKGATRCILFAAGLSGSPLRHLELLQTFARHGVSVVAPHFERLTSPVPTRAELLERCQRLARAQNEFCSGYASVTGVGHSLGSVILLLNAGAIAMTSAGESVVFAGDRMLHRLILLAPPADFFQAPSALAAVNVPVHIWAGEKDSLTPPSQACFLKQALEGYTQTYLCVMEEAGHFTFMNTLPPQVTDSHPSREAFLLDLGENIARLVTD

Pantoea dispersa AlbD variant AlbD-M1, Ser40Gly (A118G), FIG. 3 (Pantoea dispersa; S40G)
Km [1]: 94000 µM | Km [2]: 400 µM | Km [3]: 11 µM | Km [4]: 250 µM

Pantoea dispersa AlbD variant AlbD-M2, Glu25Arg (A74G)/Lys27Glu (A79G)/Ser40Gly (A118G) (Pantoea dispersa; K27E/Q25R/S40G)
Km [5]: 13000 µM | Km [6]: 23 µM | Km [7]: 66000 µM

CCCCCC(=O)Oc1ccc([N+](=O)[O-])cc1 [p-nitrophenyl caproate]
Kcat [8]: 4.2 × 10^−1 S^−1 | Kcat [9]: 1.3 × 10^−1 S^−1

CC(=O)Oc1ccc([N+](=O)[O-])cc1 [p-nitrophenol acetate, p-nitrophenyl acetate]
Kcat [8]: 9.1 × 10^−2 S^−1 | Kcat [10]: 3.8 × 10^−3 S^−1 | Kcat [9]: 1.5 × 10^−2 S^−1

CCCC(=O)Oc1ccc([N+](=O)[O-])cc1 [p-nitrophenyl butyrate]
Kcat [8]: 2.5 × 10^−1 S^−1 | Kcat [9]: 2.8 × 10^−2 S^−1

CCC(=O)Oc1ccc([N+](=O)[O-])cc1 [p-nitrophenol propionate, p-nitrophenyl propionate]
Kcat [8]: 2.7 × 10^−1 S^−1 | Kcat [10]: 8.3 × 10^−2 S^−1 | Kcat [9]: 1.0 × 10^−1 S^−1

Pantoea dispersa AlbD (albicidin detoxifying enzyme, carboxyl esterase), wild type (Pantoea dispersa)
Km [11]: 68000 µM | Km [12]: 1700 µM | kcat [12]: 0.28 s⁻¹ | kcat/Km [12]: 165 M⁻¹ s⁻¹ | Km [13]: 190 µM | kcat [13]: 0.1 s⁻¹ | kcat/Km [13]: 526 M⁻¹ s⁻¹ | Km [14]: 2500 µM | kcat [14]: 0.11 s⁻¹ | kcat/Km [14]: 55.6 M⁻¹ s⁻¹

CCCCC(=O)Oc1ccc([N+](=O)[O-])cc1 [p-nitrophenyl velerate, p-nitrophenyl valerate]
Kcat [8]: 8.8 × 10^−1 S^−1
